The source of these data is patent US6942963 (MIT, dated 2005).

The test deals with β-amyloid peptide βAP1-42. Put plainly: cell-based or functional assay.

Non-standard residues stand in square brackets, D forms with d.

β-amyloid peptide βAP1-42, sequence (peptide, as listed by the source): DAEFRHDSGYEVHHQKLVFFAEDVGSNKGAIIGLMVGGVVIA

B1: decoy peptide DP16 (+NH3.T.P.I.R+.T.P.A.P.A.COO-) (peptide)
peptide: H-[dT][dP][dI][dR][dT][dP][dA][dP][dA]-OH
As to B1, the “decrease in aggregation rate of βAP1-42, light scattering at 500 nm, DP16 at 1:1 molar ratio” value was about 50%.
